Source: patent US5472841

Molecular target: T1, Human neutrophil elastase (Homo sapiens) (UniProt P08246)
T1 sequence: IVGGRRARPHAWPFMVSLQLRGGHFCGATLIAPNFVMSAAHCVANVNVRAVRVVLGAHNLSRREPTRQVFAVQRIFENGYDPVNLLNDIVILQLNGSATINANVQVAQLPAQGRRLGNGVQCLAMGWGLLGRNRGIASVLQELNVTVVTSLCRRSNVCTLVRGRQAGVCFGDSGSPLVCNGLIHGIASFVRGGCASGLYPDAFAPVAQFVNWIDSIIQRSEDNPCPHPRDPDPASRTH
Assay: filter
Settings: apparent Kd

CCCCTGCAGGTGATTTTGCTCAAGTNNNNNNNNNNNNNNNNNNNNNNNNNNNNNNNNNNNNNNNNAGTATCGCTAATCAGGCGGATC [random ssDNA pool]
Kd: 0.25 µM
